In patent US20230212549A1 (3B PHARMACEUTICALS, published 2023):
Values joined by “and” are separate entries in the source; they are usually repeats but may differ in a detail not shown here. Equal values may be shown once. Numbered stars: 1 amine (or outer) side, 2 acyl side, 3 side chain; on linkers, the order of the positions; unused ones are H or OH. Bridge positions count the residues as written; N and C are the ends. Square brackets hold non-standard residues; d marks the D form. * marks the point of attachment. tMeBn(DOTA-PP) = 1,3,5-trimethylbenzylidene, two thioethers to Cys, third CH2 bound to one N of piperazine whose other N bears DOTA, O=C(O)CN1CCN(CC(=O)O)CCN(CC(=O)N2CCN(Cc3cc(C[*:1])cc(C[*:2])c3)CC2)CCN(CC(=O)O)CC1; Ttds = 1,13-diamino-4,7,10-trioxatridecan-succinamic acid, O=C(CCC(=O)[*:2])NCCCOCCOCCOCCCN[*:1]; N4Ac = 6-Carboxy-1,4,8,11-tetraazaundecane, an N4-chelator, NCCNCC(CNCCN)C(=O)*; DOTA = O=C(O)CN1CCN(CC(=O)O)CCN(CC(=O)*)CCN(CC(=O)O)CC1; γGlu = O=C(O)[C@H](CCC(=O)[*:2])N[*:1]; 1Nal = N[C@@H](Cc1cccc2ccccc12)C(=O)O; mXylylene = c1cc(C[*:1])cc(C[*:2])c1; Hyp = O=C(O)[C@@H]1C[C@@H](O)CN1; Nle = CCCC[C@H](N)C(=O)O; Nphe = O=C(O)CNCc1ccccc1; Octanoyl = CCCCCCCC(=O)*; Hexanoyl = CCCCCC(=O)*

Key:
[1] = molecular target: Recombinant human FAP (R&D systems, #3715-SE) (human, UniProt Q12884 26-760); assay: cell-based or functional assay
[2] = molecular target: T1, fibroblast activation protein (FAP) on FAP-expressing human WI-38 fibroblasts (human, UniProt Q12884 1-760); assay: competitive FACS, WI-38 cells, vs Cy5 tracer m3; B = pIC50 7.1-8.0
T1 construct: also called human FAP

[3] = molecular target: Recombinant human FAP (R&D systems, #3715-SE) (human, UniProt Q12884 26-760); assay: cell-based or functional assay; remark: listed apart in the source

Binder | pIC50 Category (Activity) [1] | pIC50 Category (FACS) [2] | pIC50 Category (Activity) [3] [pIC50]
Hexanoyl-CP[Hyp]TEFC-NH2 (linker 1-7 via mXylylene; SMILES CCCCCC(=O)N[C@H]1CSCc2cccc(c2)CSC[C@@H](C(N)=O)NC(=O)[C@H](Cc2ccccc2)NC(=O)[C@H](CCC(=O)O)NC(=O)[C@H]([C@@H](C)O)NC(=O)[C@@H]2C[C@@H](O)CN2C(=O)[C@@H]2CCCN2C1=O, also called 3BP-3366) [Hex-[Cys(3MeBn)-Pro-Hyp-Thr-Glu-Phe-Cys]-NH2] | 7.1 pIC50 and 8 pIC50 | 7.1 pIC50 and 8 pIC50 | –
Hexanoyl-CPPTE[1Nal]C-NH2 (linker 1-7 via mXylylene; SMILES CCCCCC(=O)N[C@H]1CSCc2cccc(c2)CSC[C@@H](C(N)=O)NC(=O)[C@H](Cc2cccc3ccccc23)NC(=O)[C@H](CCC(=O)O)NC(=O)[C@H]([C@@H](C)O)NC(=O)[C@@H]2CCCN2C(=O)[C@@H]2CCCN2C1=O, also called 3BP-3361) [Hex-[Cys(3MeBn)-Pro-Pro-Thr-Glu-1Ni-Cys]-NH2] | 7.1 pIC50 and 8 pIC50 | 7.1 pIC50 and 8 pIC50 | –
Hexanoyl-CPTPFQCD-NH2 (linker 1-7 via tMeBn(DOTA-PP); SMILES CCCCCC(=O)N[C@H]1CSCc2cc(cc(CN3CCN(C(=O)CN4CCN(CC(=O)O)CCN(CC(=O)O)CCN(CC(=O)O)CC4)CC3)c2)CSC[C@@H](C(=O)N[C@@H](CC(=O)O)C(N)=O)NC(=O)[C@H](CCC(N)=O)NC(=O)[C@H](Cc2ccccc2)NC(=O)[C@@H]2CCCN2C(=O)[C@H]([C@@H](C)O)NC(=O)[C@@H]2CCCN2C1=O) [Hex-[Cys(tMeBn(DOTA-PP))-Pro-Thr-Pro-Phe-Gln-Cys]-Asp-NH2] | – | – | ≤ 6
{DOTA}-[Ttds][Nle]CPPTEFCD-NH2 (linker 3-9 via mXylylene; SMILES CCCC[C@H](NC(=O)CCC(=O)NCCCOCCOCCOCCCNC(=O)CN1CCN(CC(=O)O)CCN(CC(=O)O)CCN(CC(=O)O)CC1)C(=O)N[C@H]1CSCc2cccc(c2)CSC[C@@H](C(=O)N[C@@H](CC(=O)O)C(N)=O)NC(=O)[C@H](Cc2ccccc2)NC(=O)[C@H](CCC(=O)O)NC(=O)[C@H]([C@@H](C)O)NC(=O)[C@@H]2CCCN2C(=O)[C@@H]2CCCN2C1=O, also called 3BP-3320) [DOTA-Ttds-Nle-[Cys(3MeBn)-Pro-Pro-Thr-Glu-Phe-Cys]-Asp-NH2] | > 8 pIC50 | 7.1 pIC50 and 8 pIC50 | –
Hexanoyl-CFQTPPCD-NH2 (linker 1-7 via tMeBn(DOTA-PP); SMILES CCCCCC(=O)N[C@H]1CSCc2cc(cc(CN3CCN(C(=O)CN4CCN(CC(=O)O)CCN(CC(=O)O)CCN(CC(=O)O)CC4)CC3)c2)CSC[C@@H](C(=O)N[C@@H](CC(=O)O)C(N)=O)NC(=O)[C@@H]2CCCN2C(=O)[C@@H]2CCCN2C(=O)[C@H]([C@@H](C)O)NC(=O)[C@H](CCC(N)=O)NC(=O)[C@H](Cc2ccccc2)NC1=O) [Hex-[Cys(tMeBn(DOTA-PP))-Phe-Gln-Thr-Pro-Pro-Cys]-Asp-NH2] | – | – | ≤ 6
{DOTA}-[Ttds][Nle]CPPTEFC-NH2 (linker 3-9 via mXylylene; SMILES CCCC[C@H](NC(=O)CCC(=O)NCCCOCCOCCOCCCNC(=O)CN1CCN(CC(=O)O)CCN(CC(=O)O)CCN(CC(=O)O)CC1)C(=O)N[C@H]1CSCc2cccc(c2)CSC[C@@H](C(N)=O)NC(=O)[C@H](Cc2ccccc2)NC(=O)[C@H](CCC(=O)O)NC(=O)[C@H]([C@@H](C)O)NC(=O)[C@@H]2CCCN2C(=O)[C@@H]2CCCN2C1=O, also called 3BP-3319) [DOTA-Ttds-Nle-[Cys(3MeBn)-Pro-Pro-Thr-Glu-Phe-Cys]-NH2] | 7.1 pIC50 and 8 pIC50 | 7.1 pIC50 and 8 pIC50 | –
N4Ac-[γGlu][Nle]CPPTEFC-OH (linker 3-9 via mXylylene; SMILES CCCC[C@H](NC(=O)CC[C@H](NC(=O)C(CNCCN)CNCCN)C(=O)O)C(=O)N[C@H]1CSCc2cccc(c2)CSC[C@@H](C(=O)O)NC(=O)[C@H](Cc2ccccc2)NC(=O)[C@H](CCC(=O)O)NC(=O)[C@H]([C@@H](C)O)NC(=O)[C@@H]2CCCN2C(=O)[C@@H]2CCCN2C1=O) [N4Ac-gGlu-Nle-[Cys-(3MeBn)-Pro-Pro-Thr-Glu-Phe-Cys]-OH] | – | – | ≤ 6
Octanoyl-CPPTQFCD-NH2 (linker 1-7 via mXylylene; SMILES CCCCCCCC(=O)N[C@H]1CSCc2cccc(c2)CSC[C@@H](C(=O)N[C@@H](CC(=O)O)C(N)=O)NC(=O)[C@H](Cc2ccccc2)NC(=O)[C@H](CCC(N)=O)NC(=O)[C@H]([C@@H](C)O)NC(=O)[C@@H]2CCCN2C(=O)[C@@H]2CCCN2C1=O, also called 3BP-3417) [Oct-[Cys(3MeBn)-Pro-Pro-Thr-Gln-Phe-Cys]-Asp-NH2] | 7.1 pIC50 and 8 pIC50 | 7.1 pIC50 and 8 pIC50 | –
Hexanoyl-CPPTQWC-NH2 (linker 1-7 via mXylylene; SMILES CCCCCC(=O)N[C@H]1CSCc2cccc(c2)CSC[C@@H](C(N)=O)NC(=O)[C@H](Cc2c[nH]c3ccccc23)NC(=O)[C@H](CCC(N)=O)NC(=O)[C@H]([C@@H](C)O)NC(=O)[C@@H]2CCCN2C(=O)[C@@H]2CCCN2C1=O, also called 3BP-3408) [Hex-[Cys(3MeBn)-Pro-Pro-Thr-Gln-Trp-Cys]-NH2] | 7.1 pIC50 and 8 pIC50 | 7.1 pIC50 and 8 pIC50 | –
Hexanoyl-CPPTEFC-OH (linker 1-7 via mXylylene; SMILES CCCCCC(=O)N[C@H]1CSCc2cccc(c2)CSC[C@@H](C(=O)O)NC(=O)[C@H](Cc2ccccc2)NC(=O)[C@H](CCC(=O)O)NC(=O)[C@H]([C@@H](C)O)NC(=O)[C@@H]2CCCN2C(=O)[C@@H]2CCCN2C1=O, also called 3BP-3370) [Hex-[Cys(3MeBn)-Pro-Pro-Thr-Glu-Phe-Cys]-OH] | 7.1 pIC50 and 8 pIC50 | 7.1 pIC50 and 8 pIC50 | –
Hexanoyl-C[Nphe]PTQFC-NH2 (linker 1-7 via mXylylene; SMILES CCCCCC(=O)N[C@H]1CSCc2cccc(c2)CSC[C@@H](C(N)=O)NC(=O)[C@H](Cc2ccccc2)NC(=O)[C@H](CCC(N)=O)NC(=O)[C@H]([C@@H](C)O)NC(=O)[C@@H]2CCCN2C(=O)CN(Cc2ccccc2)C1=O) [Hex-[Cys(3MeBn)-Nphe-Pro-Thr-Gln-Phe-Cys]-NH2] | – | – | ≤ 6
